The record followed here is patent US20140127211A1.

Experiment [1] has as its target full-length human Notch3 expressed on the cell surface (human) (UniProt Q9UM47). Nature of the experiment: flow cytometry, negative control antibody, OVCAR3 cells.
The target is the same in experiment [2]. Nature of the experiment: flow cytometry, negative control antibody, HCC2429 cells. (Flow cytometry measures light scatter and fluorescence of single cells or particles in a stream.)
Experiment [3] has the same target. Nature of the experiment: flow cytometry, negative control antibody, MDA-MB-468 cells.
Experiment [4] shares this target. The experiment is described as follows: flow cytometry, negative control antibody, U2OS/hNotch3 cells.
Experiment [5] shares this target. The experiment is described as follows: flow cytometry, negative control antibody, MDA-MB-468/hNotch3 cells.

Chain of full-length human Notch3 expressed on the cell surface (human) (Q9UM47 40-2321): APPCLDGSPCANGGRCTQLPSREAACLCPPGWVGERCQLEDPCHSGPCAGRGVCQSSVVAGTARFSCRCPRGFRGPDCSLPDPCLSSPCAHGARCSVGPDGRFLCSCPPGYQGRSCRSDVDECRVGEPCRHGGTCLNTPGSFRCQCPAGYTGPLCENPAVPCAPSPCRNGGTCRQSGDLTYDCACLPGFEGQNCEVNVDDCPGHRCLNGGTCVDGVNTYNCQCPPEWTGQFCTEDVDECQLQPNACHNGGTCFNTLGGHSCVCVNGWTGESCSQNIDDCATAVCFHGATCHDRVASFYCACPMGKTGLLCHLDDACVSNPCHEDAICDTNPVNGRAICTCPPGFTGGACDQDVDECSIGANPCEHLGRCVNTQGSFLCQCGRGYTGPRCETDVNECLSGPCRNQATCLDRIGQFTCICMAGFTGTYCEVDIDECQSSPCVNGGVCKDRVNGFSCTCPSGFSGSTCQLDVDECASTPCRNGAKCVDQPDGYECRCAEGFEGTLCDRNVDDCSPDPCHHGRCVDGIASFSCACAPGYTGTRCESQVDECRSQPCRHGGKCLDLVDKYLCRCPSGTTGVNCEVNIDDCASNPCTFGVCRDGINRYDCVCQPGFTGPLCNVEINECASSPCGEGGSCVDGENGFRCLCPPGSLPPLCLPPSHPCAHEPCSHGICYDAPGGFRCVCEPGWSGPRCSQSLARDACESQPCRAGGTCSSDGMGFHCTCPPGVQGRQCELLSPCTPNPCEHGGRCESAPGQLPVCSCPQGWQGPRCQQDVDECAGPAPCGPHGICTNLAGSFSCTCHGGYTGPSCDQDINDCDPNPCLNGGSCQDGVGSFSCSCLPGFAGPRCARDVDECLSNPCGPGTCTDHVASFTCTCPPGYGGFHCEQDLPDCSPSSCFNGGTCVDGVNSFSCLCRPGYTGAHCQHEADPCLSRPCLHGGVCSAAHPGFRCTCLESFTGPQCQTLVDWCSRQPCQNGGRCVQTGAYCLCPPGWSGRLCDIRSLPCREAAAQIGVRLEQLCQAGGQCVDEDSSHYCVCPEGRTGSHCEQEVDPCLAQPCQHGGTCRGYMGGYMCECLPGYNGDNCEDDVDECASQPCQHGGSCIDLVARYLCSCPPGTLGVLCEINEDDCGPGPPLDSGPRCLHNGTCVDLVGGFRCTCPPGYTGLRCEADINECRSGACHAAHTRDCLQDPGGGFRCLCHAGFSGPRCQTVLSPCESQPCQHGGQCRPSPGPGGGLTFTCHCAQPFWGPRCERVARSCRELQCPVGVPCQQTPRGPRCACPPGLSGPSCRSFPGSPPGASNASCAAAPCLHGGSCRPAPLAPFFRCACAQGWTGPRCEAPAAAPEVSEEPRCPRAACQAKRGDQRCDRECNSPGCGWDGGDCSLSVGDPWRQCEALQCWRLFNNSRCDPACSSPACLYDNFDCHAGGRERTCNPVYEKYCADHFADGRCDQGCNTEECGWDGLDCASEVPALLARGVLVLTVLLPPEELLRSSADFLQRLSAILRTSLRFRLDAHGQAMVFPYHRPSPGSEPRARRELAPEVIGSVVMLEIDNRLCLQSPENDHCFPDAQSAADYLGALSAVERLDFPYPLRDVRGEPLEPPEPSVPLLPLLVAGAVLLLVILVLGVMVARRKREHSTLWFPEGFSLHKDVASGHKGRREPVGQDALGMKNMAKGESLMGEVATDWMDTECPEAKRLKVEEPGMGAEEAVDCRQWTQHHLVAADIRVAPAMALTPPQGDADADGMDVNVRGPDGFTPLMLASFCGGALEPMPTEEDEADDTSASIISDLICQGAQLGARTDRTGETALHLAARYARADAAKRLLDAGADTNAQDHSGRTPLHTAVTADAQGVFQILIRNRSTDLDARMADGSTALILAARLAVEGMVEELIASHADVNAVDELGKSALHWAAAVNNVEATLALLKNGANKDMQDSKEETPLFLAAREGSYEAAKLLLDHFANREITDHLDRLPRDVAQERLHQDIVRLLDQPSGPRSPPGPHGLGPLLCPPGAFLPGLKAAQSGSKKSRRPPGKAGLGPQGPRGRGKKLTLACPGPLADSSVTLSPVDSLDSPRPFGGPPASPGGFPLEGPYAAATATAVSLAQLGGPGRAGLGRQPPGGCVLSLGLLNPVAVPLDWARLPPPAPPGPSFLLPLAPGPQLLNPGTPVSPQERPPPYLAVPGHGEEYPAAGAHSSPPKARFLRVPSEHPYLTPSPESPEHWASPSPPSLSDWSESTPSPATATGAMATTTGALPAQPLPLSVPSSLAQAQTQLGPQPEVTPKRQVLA

For the substance huNeg8.8 negative control antibody, the MFI in experiment [1] turned out to be 5 MFI; in experiment [2], 3 MFI; in experiment [3], 6 MFI; in experiment [4], 6 MFI; in experiment [5], 6 MFI.
